Reference: a protein production outcome set (Wang et al. 2014)

Test: label from the status in PepcDB records

Row | Sequence | protein production
1 | MSNTTRQAGSQGSLDAFFKITQRGSNVRQEVLAGLTTFLAMVYSVIVVPSMLGKAGFPPTAVFVATCLVAGLGSLLMGLWANLPMAIGCAISLTAFTAFSLVLGQQISIPVALGAIFLMGVLFTIISVTGIRSWILRNLPLGVAHGTGIGIGLFLLIIAANGVGLVVKNPIDGLPVALGNFTSFPVIMSLLGLAATIGLEKRRVPGGILLVIVVISILGLIFDPNVKYAGFFALPSLTAADGSSLIFSLDIMGALQPLVLPSVLALVMTAVFDATGTIRAVAGQANLLDKDGQIINGGKALTADSVSSIFCSLVGTSPAAVYIESAAGTAAGGKTGLTATVVGVLFLLLLFVSPLAYLVPGYATAPALMYVGLLMLGNVSKLNFDDFVDAMSGLVCAVFIVLTCNIVTGIMLGFGALVLGRICSGEWRKLNIGTVIIAVALVAFYAGGWAL | failed
2 | MTGIWEENTGKQSGDHSTPLRWRCFKHEKNRPPSLVPGQQSGIILACFRRGPPPRCLVKRLPYPGSALVLRRYIMSTSPVTLMVARRVADGRYQDLIAWLREGEQLATDFPGYLGSGVLAPPPNDDEFQIIFRFADESTLHTWEHSASRTAWLARGSDLFAHPSEHRVSGIDGWFGAAGHRPPRWKQAVAIWLAFFPVSLLFNFVLGPLLGDLSLLPRVFVSTLALTPLMVYFFIPLSTRLLANWLNSTPARPLPATPSTQNP | failed
3 | MEPGLRLLIQLVLEFAPVFVNILHKRSEESLTTARYQVPNLIQGFIETINNINDIDNSNKSLEQEKLWQQQLVAYQRETQAQIANQQRDTALKLPEVNKILDSWPLRLYPSQILESHHSYERKPLKVFIAPPKIHFDKFDNHVETYSEIELMLAEGLREFINENYSLHSPTRPIEFLAGAWDSKRFHSESSIKALFGMLKTEPILILESENDGDYLNFRIAYWGLTQGTYYYKTISRLPYKEIIQNSAKNRALEWKKVRDELLEIGVDVEEINEFGKDNVFNLAILEKAEKWQAQGIDISKLSLQYRVSQQDIEQLCQVLITCHCLVAAWVADIYHLGNHDIPPLLPELLPSLLKNAIDVQSLQAIASSYKQVYEALEKERLYWIPELSMQLAQSLSHLPDTSWAQAEVDYSINTWLELRQVSLQQFTSPLEAMQSVVKIEDEEYIQKLREYFTVIGDRHNLQFVEKLLEAIATLKYKRSLEYPYLTKTITGHSGKVKSVAISPDGEVIVSGCTDQTVNIWNLQTGKLIRTLTGNLGEVSSVAISPDGNFLAVGSGVHPRSNVKVWHLKTGKLLHTLLGHQKPVNVVVISPDGQILASGSNKIKIWNLQKGDGVPPTVGDRICTLWHSSAVHAIAISPDSTILASGSSDNKIRLWNPRTGDPLRTLNSHDNEVKAIAISRDGQFLFSGSADTTIKIWHLITGQILHTLTGHSGDIKSLTTSPNGQFLFSGSADTTIKIWRISTGELLHTLTGHSASVNSVAISPGGNLLASGSADQTIKIWQIDKI | failed
4 | MWWSGLASQSKAQETPGRRGLEERKQLIMEIYNSLRSADIASIEFEGPEIAVYIRNPKFIVENENVVKDLARKLRKRIVVRTHPKSRKSMEYTIKFIRENVPPDVGIVDIQFDDVLGEVRVIAEKPGKLMGRGKVFRNLVLAETGWRLEVYRKPLLQSGLLDSVLRHLQRHAEERRRALRDIGERIFRDTLIGTRHVRVVGLGSFGEVGRSAILVDTGESKVLLDAGLSPSGYGPDSYPYYWSPEFRVDELDAVVISHAHLDHVGTLPLLFKYGFRGPVYATPPTRDIMIIVLRDLINLMRKAQGEPPFEPRDVEKALTRLIPVNYNTVTDVAPDIKMTFINAGHILGSSMVHLHIGQGLYNILYTADFKFYRIKNDRSTRLLPPAEYSFQRVEALIMEATYGSKETQPRAEAEEELINLVNKVYKRGGKLLIPVMAVGRGQEILVVLNEALRSGKIPEIPIYVDGMVYEVTAVYTNYPELLVKPIRDRILKQGENPFEGPTTVYVTDHYKRDEAMYSDKPAIILSTSGMMNGGPIVEYFKYLADDPRNALAFVSYQAPGTLGRRLQSGEREIELEMDGGIRRIKVNMEIVSIEGFTGHSTRGELLSFLRRLNPKPRNIVLNHGEPSAIAALAHTVKTGWSKLGFESPPIIEAPENLEGVRLYPRNLKMKLALQHS | failed
5 | MFKKHNFHFNWLPLILISTVSIMLIFNIRSILSEGIRPFLSVLTPFFWAFGIAYLINPLMMLIEKKFKLKRAFSLMISYILVIICVYILIAIIVPTIFDSLSELFSNLSEYASSAESWINNTLASMNVPLDLNHLNTSATEFISKTSTLLSNIVGSLLTQTIKITSSVVKFVFGFIISIYMLMDKETLIEGCKKIIIAVMPSEKSSELFISFMAEAHNIFSRFIIGKIIDSLIIGVLCYIGLLLMGTQYAVLISFIVGLTNMIPYFGPFIGMIPAFLLTLIVQPSMAIWVLLFIFILQQFDGWYLGPKILGDQVGVSPLFIIFAVTVGGGIFGVLGMFLSVPIIALIKIYTEKFIEYRLENKKQNFSE | failed
6 | MLNMQRLQTVLLQCAGWLLYMSLLMLIALALPADIFDSQSKHFIFLVGAVGIWRYSMGATHFIRGMIFLYGVYPYLRRKVQKMGNATDPSHVYLMVTSFRIEALTTAQVYSSVIREAINCGFPTTVVCSLVEMSDELLVKSLWAKYNPPAHVKLDIVRIAGTGKRDGLAYGFRAISRMLPDENAVVAVIDGDTVLADGVVRKTVPWFKLFPNVGGLTTNEFCEVRGGYIMSEWHKLRFAQRHINMCSMALSKRVLTMTGRMSMFRASVVTNPEFIADVESDSLMHWRLGRFKFLTGDDKSSWFSLMRLGYDTFYVPDAAINTVEHPPEKSFLKASRKLMYRWYGNNLRQNSRALGLGLRRLGLFTSIVLFDQRVSMWTSLLGLTVAVIASLKFGMAFLLVYLLWIGITRLILTIMLLCSGHNVGPAYPLILYYNQIIGALMKIYVFFRLDKQSWTRQPTALKRDLASFQQWFNTWSSRTMTFSAASIFVAVLFMVV | failed
7 | MSSSLMTSSGFRFLFPIALLGMVSVGMGNIIQMTQSNWGIAANLPYILLGCALVLCYSFKQGRESMVCLSMLVAYFVIQHRLQVPLNSGTALLELTILATLLPVSFLTVFLFNKDGFDSKAMFIYVLMLVMFILWSYIILAYYVDGGFEQWTSGILFIVPSVSKLPFILVLYCVGIVCFLGILLLKTNKIIHAMTYSAMALASATFIFFDVQYISSTMFTLTGLLIIIYSTSASHQLAFTDSLTQIPSRRALDLDLKHMGRKFTIAMLDVDHFKKFNDTYGHDIGDDVLKMVASRLMKTRGGAKVYRFGGEEFTMVFKGKNVEDCRQYIEEARKAIAEYEMILRDKASRPDDHKQGQQNRGTEDMQRESVFVTASFGAADSRNGREPAEVIKLADAALYKAKKAGRNCTRVNQN | failed
8 | MIILGQALYQKDQFAEAAKCLEQAASKLLDTSPTEVEEVDLLIVASQWAGVSNIRQGKTSEGITHLERVANMKEPDDPKSKAHYLDALVLYSSAIFNEGRREEAAKYLRRVVAYDPSFSELLKQCEEDDTIPTSSSSNSTSKTS | failed
9 | MAGLVKKTTGLVGLAVCDTPHERLTILYTKILDLLKHFPKHAAYRKYTEQITSEKLELVKLEPDVKKLENLLQGGEVEEVILQAEKELSLARKMLQWKPWEPLVEEPPANQWKWPI | failed
10 | MESSGNPESTTFFYYDLQSQPCENQAWVFATLATTVLYCLVFLLSLVGNSLVLWVLVKYESLESLTNIFILNLCLSDLVFACLLPVWISPYHWGWVLGDFLCKLLNMIFSISLYSSIFFLTIMTIHRYLSVVSPLSTLRVPTLRCRVLVTMAVWVASILSSILDTIFHKVLSSGCDYSELTWYLTSVYQHNLFFLLSLGIILFCYVEILRTLFRSRSKRRHCTVKLIFAIVVAYFLSWGPYNFTLFLQTLFRTQIIRSCEAKQQLEYALLICRNLAFSHCCFNPVLYVFVGVKFRTHLKHVLRQFWFCRLQAPSPASIPHSPGAFAYEGASFY | failed
11 | MTAAQDGRIITFYSYKGGTGRTMALANTAWILAANGKRVLAVDWDLEAPGLDRFFRPFLDPHALAATSGIIDIINEYAWAATSGSQRSGAWHQEYAHVEQHAVSLTPERHGLRFAKGGSLDFLSAGRQDRSYSATVSSFEWDNFYERLGGGLFLDALRDDMKASYEYVLIDSRTGLSDNADICTIQMPDMLVDCFTLSDQSLDGAAAVARSVEDGYRKRKIRVLPVPMRIDEGEKEKVDAGRALARLKFDGLPKGLGGEDLSPEELSQYWGAVEIPYRPYYAYEETLATVGDESGIANSLLSAFERLTNVISDGEVASLPPVPEPVRLRCLDAFTRRRPLTTAADVVVAYAAENRMWADWIEAVLKHSGCNVTLYDVSAGPVERPDAATRALVLLSNAFQKSRYGEDVWRAFTGGDPDGAHPALVPLRVDEVRLPDSYLAHEPVDLHRLEEAQCVAGLLSALELPAQPTDGAPAAPRFPGSTPATWNAPQRNQTFTGRNVILTQVREQLRSGMSVVLPQPQALTGLGGVGKTQVALEYVHRFMADYDLVWWTSAESVDNVVASLAELGARIGAPGGEDMALVSRETVQMLARGVPTKRWILIFDNADNPEQLTRYFPAGGGGHILVTSRNQAWATQGQSLPVDVFLRQESIEHLSRRAPGLTAHEADRVATAVGDLPLAVEQAAAWLAETATPIEDYLRQLAEQTTDVLDLNQPADYPETVAATWNISIARLKDRSPASVRLLQLCAFLAPEPISSHLLYSKEMIDELRKVDPTLQESLLLGRVIREIARFALAKVDQVSNSIQVHRLVQAVIRSQLTQEEQRHARHVVHTVLAGARPDGDEPIDDPETWPRFGVIWPHLSASDVRNCTENEPRRLLIDRVRYLWKRGDFPAAQQLAEDLLGHWKPLLGEEDVQYLYLRCQLANVMRSQGRYVESRAINTELLEQQRRVLGAAHPHTYVTMSSLASDLAALGEYTLAVELAREAHDGFSQIFHESHRRTLSAANNLALALRMVGRYGDARSLDQDTYDRRMEVLGPDHPYTLASAGRLGRDLREVGRYEDSVSLLSRAYDAHKRILGKGFPGTLSCAKSLAVSLRRTGRLEDARRLTTATRAQYRTQYDAHTPDSLACDLNMAADLYAADEREAAREVAKEALTEYMKVPGEEHPYTQAALNNLGIFHWGCGDAVEAEAVFRQVLPRMSDVLGDRHPHTLFTEANFANVLADQGRLEEAWALEKRAMDTLRTVLGPQHPETLAVVSNCALTLGALGRTDEARRLREETLAELNRQGRQLGENNGIIQLTGHERRIYRDLEPLAV | failed
12 | MPAPRFAQASEVPGLAARRIAADILDGVLQKRRMLDDQLEGPAAHPGLKTLSDRDRALMRRLVATILRRLGTLEGLLAKLLDRGVPTDAPRAKSALLIGAAQILWMDVPDHAAVDLSVRLVQSDRRAAKYAGLVNAVLRRCAREGQPLVEELAAGTPDVPQWLLARWSEHYGAETTRAIAHAISHEPSLDLTVKSDPAHWAARLHGEVLPTGTVRTLLQGSVRMLPGFDEGQWWVQDAAAALPARLFGDIAGKSVADLCAAPGGKTAQLAAAGARVTAIDRSPARVARLRENLARLSLKVETGVADAAEWRGDATAEFDAVLIDAPCASTGTIRRHPDVAWLKQESDIGALAAVQNRLLKKAASLLRPGGTLVYCTCSLEPEEGEQAIAALLDAESSMRRQPIDPAEVAGLAEIVTTDGALRTLPCHLPHSDPRLAGLDGFYAARLVKSL | failed
13 | MRQLTAAALYENLFGPLALAYAPGRPFEWRSNGRAWRARGRLGAFGRPRLEPGTVECRTGRAWRQASIADAVAALPGAPQEHARLRHELNQTEALLRWNRVNAPRHDRRRMSFSALDAAIDEGHPYHPCFKSRTGFDEHDHRCYGPEADGTFQLDWLGVARELLHLSFPSTEASFWKRELGAAGLADIEARAAALGLEHDRFGLMPIHPWQWRDLSADRLRPLLQSGRIHYLGAAGDRYRASQSVRTLSNAQAPHRSSVKLALGIVNTSTRRNIEAHSVATAPVLSRWLDTILDSDPLFRLRYRLDIVSEFAGAIVDRDGPLGGEIAAIWRESVESKLADGESAVPFNALMAIEADGLPFIDPWLQRYGLKPWLDRLVEVAVLPVWRLLVVHGIATEAHGQNMVLVHRDGWPERLILRDFHDSLEFVPDFLADPNLAPDFLTLDPRYRRALPNQYYWMERPEDLRDLFVDCLFVFNLSEISHLVQSFYGISEGAFWHRVSLRLAADIAEHGLGERVARLGFGTPEIVIESLLARKLGLSGDALQHNVPNPLAAVVPLAREYA | failed
14 | YRALFEHAIDGIFIMDAEGHYLDVNPAICSAIGYTRDEFLALDWGVLSRGVDSGWAAASLARIVGGEPLREERTVWTRNGDQLTVELSAHLLPDGKILGIARDVS | not failed
